Results as given in patent publication US20260258115A1 (MAPP BIOPHARMACEUTICAL, published 2026).
Substitutions are numbered along the chain they refer to.

B1: ADI-41291 (antibody, V domains shown)
VH: QVQLQQWGAGLLKPSETLSLTCVVYGESFSDSGYYWTWIRQPPEKGLEWIGEINHGGSTSYNPSLKSRVTISVDTSENQFSLKVTSVTGADTAVYYCARLRLGCSGGSCYSRFDYWGQGTLVTVSS
VL: DIQLTQSPSSLSASVGDRVTITCRASQSINSYLNWYQQKPGKAPVLLIHAASSLQGGVPSRFSGSGSGTDFTLTISSLQPEDFATYYCQQSYNTRWTFGHGTKVDIK
B2: ADI-41289 (antibody, V domains shown)
VH: EVQLVQSGAEVKKPGESLKISCKGSGYSFSSFWIGWVRQMPGKGLEWMGIIYPGDSDTRYSPSFQGQVTISADQSIRTAYLQWNSLKASDTGLYYCAKGGLGDVEMATIAVWGQGTLVTVSS
VL: QSVLIQPASVSGSPGQSITIPCTGTSSDVGSYNLVSWYQHHPGKAPKLIISEGSKRPLGVSNRFSGSKSGNTASLTISGLQAEDEADYYCSSYVRSRTFNYVFGTGTKLTVL
B3: ADI-41287 (antibody, V domains shown)
VH: EVQLVESGGGLVQPGRSLRLSCAASGFTFDDYAMHWVRQAPGKGLEWVSSISWHSADIGYAASVEGRFTISRDNAKNSLFLQMNSLRPEDTALYYCAKEIVSTSWYSGYFQDWGQGTLVTVSS
VL: QPVLTQPRSVSGSPGQSVTISCTGTSSDVGDYNYVSWYQQHPGKAPKLMIYDVSKRPSGVPDRFSGSKSGNTASLTISGLQGEDEADYYCCSYAGRHTFVFGTATKVTVL
B4: ADI-41283 (antibody, V domains shown)
VH: QVTLKESGPTLVKPTQTLTLTCTFSGFSLSTFGVAVGWIRQPPGKALEWLALIYWDDDKRYSPSLKSRLTITKDISKNQVVLTMTNMDPVDTATYYCAHRLRSLTARGVFDIWGQGTTVTVSS
VL: DIRLTQSPSSLSASVGDRVTITCRASQSINNFLNWYQQRPGKAPTLLIYSASSLQSGVPSRFSGSGSGTDFTLTISSLQPEDFATYFCQQTDSFPWTFGQGTKVEIK
B5: ADI-41305 (antibody, V domains shown)
VH: QVTLKESGPGLVKPSQTLSLTCTVSGGSISGGGYYWSWIRQLPGKGLQWIGCIYDSGTTYYNPSLKSLVTISIDTSKNQFSLKLSSVTAADTAVYYCARGGSLDDFWSATWYFALWGRGTLVTVSS
VL: EIVLTQSPGTLSLSPGERATLSCRASQSVSSNYLAWYQQKPGQAPRLLIYGASSRATGIPDRFSGSGSGTDFTLTISRLEPEDFAFYYCQQYGRSPYTFGPGTKLEIK
B6: ADI-41286 (antibody, V domains shown)
VH: QVQLVQSGAEVKKPGASVKVSCKASGYTFISYGISWVRQAPGQGPEWMGWISTHNGNTNYAQKLQGRVTMTTDTSTSTAYMELRSLRSDDTAVYYCARDERSIAVEVYLGSTFDIWGQGTMVTVSS
VL: DIQVTQSPSSVSASVGDRVTITCRASQGISSWLAWYQQKPGKAPKLLIYAASTLQSGVPSRFSGSGSGTDFTLTISRLQPEDFATYYCQQANIFGVTFGPGTKVDIK
B7: ADI-41281 (antibody, V domains shown)
VH: QVQLVQSGAEVKKPGASVKVSCKASGYSFTNHGIHWVRQAPGQRLEWMGWINVANGFTAYSQNLQGRVTFTRDTSASTAYLELTSLRSEDTAVYHCARDESYCSAGYCYLYFDYWGQGTTVTVSS
VL: DIQVTQSPSSLSASVGDRVTITCRASQNIITYVNWYQQKPGKAPELLIFGASSVQSGVPSRFSGSGSGTDFTLTISSLRPDDFATYYCQQSYSNPRTFGGGTKVEIK
B8: ADI-41292 (antibody, V domains shown)
VH: EVQLLESGGGVVQPGRSLRLSCAASGFSFSSYGIHWVRQAPGKGLECVALMSYDGSEKYYADSVKGRFTISRDNSKNTLYLHMNSLRREDTAVYYCAKGSHLRWSHLDYYFHLWGRGTLVTVSS
VL: DIVMTQSPSTLSASVGDRVTITCRASQSLSTWLAWYQQKPGKAPKLLISDASNLESGVPSRFSGRGSGTEFTLTISGLQPDDFATYYCQQERTFGQGTKVDIK
B9: ADI-41288 (antibody, V domains shown)
VH: EVQLVESGGGLVQPGGSLRLSCAASGFTFSSYAMSWVRQAAGKGLEWVSAISGSGDDTFYADSVKDRFIISRDSSKRKVYLQMNSLRVEDTAVYYCAKTDIMVTFGGVVVDAYYFDHWGQGTLVTVSS
VL: ETTLTQSPGTLSLSPGERATLSCRASQFVFRSYLAWYQQRPGQPPRLLIYGASSRATGIPDRFSGRGSGTEFTLTISRLEPEDFAMYYCQHYDSSPPGTFGGGTKVEIK
B10: ADI-41296 (antibody, V domains shown)
VH: EVQLVESGVEVKKPGESLKISCRGSGYTFYNYWIAWVRQKPGKGLEYMGTIYLDDSETIYSPSFQGEVTISADKSINTAYLQWNSLKASDTANYYCARQMDFYFDVWGRGTLVTVSS
VL: SYELMQPPSVSVSPGQTARITCSGDPLPRESAYWYQQKPGQAPVVIIFNDIERPLGIPERFSGSRSGTTVTLTISGAQAEDEADYYCQSADSRKTFVFGTGTKLTVL
B11: ADI-41284 (antibody, V domains shown)
VH: QVQLVQSGGGLVKPGGSLRLSCAASGFTFSNAWMSWVRQAPGKGLEWVGRIKSEVDGGTADYAANVKGRLTISRDDSKNMMYLQMNSLKTEDTAVYYCTTDPGVGWIFGEVKLFRTDPEYWGQGTLVTVSS
VL: QSVLTQPPSVSAAPGQKVTISCSGSSSNIGNHYVSWYQQLPGTSPKLLIYDNNKRPSGIPDRFSGSKSGTSATLGITGLQPGDEADYYCGTWDSSLSAVRVFGGGTKVTVL
B12: ADI-41293 (antibody, V domains shown)
VH: QVQLQQSGPGLAKPSQTLSLTCTVSGGPISGVDYYWSWIRQPPGKGLEWIGYIYYSGSTYYNPSLKSRVTISVDTSKKQFSLKMSSVTAADTAVYYCARDVGATPYYYYGMDVWGQGTTVTVSS
VL: DIVLTQSPDTLSLSPGERATLSCRASQSVRSNYLAWYQHKPGQAPRLLIYGASSRVAGIPDRFSGSGSGTDFTLTISRLEPEDFAVYYCQQYGSSPPSVTFGGGTKVEIK
B13: ADI-41294 (antibody, V domains shown)
VH: EVQLLESGGGLVQPGGSLRLSCAASGFTFSAYEMNWVRQAPGKGLEWVSYISSSGSNKHYADSVKGRFTISRDNAKNSLHLHMNSLRAEDTALYYCTRPHQEEWELLPNDAFDLWGQGTMVTVSS
VL: QSALTQPPSASGSPGQSVTISCTGTSTDVGAYTYVSWYQQHPGKAPKLIIYEVYKRPSGVPNRFFGSKSGNTASLTVSGLQAEDEADYYCSSYGGSNNFGLFGGGTKLIVL
B14: ADI-41302 (antibody, V domains shown)
VH: QVQLVESGGGVVQPGRSLRLSCAASGFTFSSYAMQWVRQAPGKGLEWVAVMTNDGDDKYYADSVRGRFTISRDNSKNTLYLQMNNLRPEDTAVYYCARDLFEWWELLGYCYAMDVWGQGTTVTVSS
VL: B13 VL with A3V, T27S, T33N, N62D, G94A, N98T, F99L, L101V, L108V, I109T
B15: ADI-41285 (antibody, V domains shown)
VH: QVQLVQSGAEVKKPGSSVKVSCKASGGTFSYYAISWVRQAPGQGLEWMGGIIPILGTVKNAQKFQGRVTITADKITSIAYMELSSLRHEDTAVYYCARDYYDSSGYYYNGYGMDVWGQGTTVTVSS
VL: QSVLIQPPSASGTPGQRVTISCSGSSSNIGSNYVYWYQQLPGTAPKLLIYRNDQRPSGVPDRFSGSKSGTSASLAISGLRSGDEADYYCAAWDDSLGGPIWVFGGGTKLTVL
B16: ADI-41304 (antibody, V domains shown)
VH: EVQLVESGPGLVKPSQTLSLTCTVSGGSIRSHDYYWSWIRQPPGKGLEWIGYSYYSGSTYYNPSLKSRVIISLDTSKNQFSLNLTSVTAADTAMYYCARDRPHTSSWIPGWFDPWGQGTLVTVSS
VL: SYELTQPPSASGTPGQRVTISCSGSSSNIGSNTVSWYQQFPGKAPKLLIYSNNERPSGGPDRFSGSKSGTSASLAIGGLQSEDEANYYCAAWDDSLYAVVFGGGTKLTVL
B17: ADI-41297 (antibody, V domains shown)
VH: QVQLVQSGAEVKKPGSSVKVSCKASGGTFSTDAISWVRQAPGQGLEWMGGIIPLFGTANYAQKFQGRVTITADESTSTAYMELNSLRSVDTAVYYCGRTGAFDGEVVVRPHLDLWGQGTLVTVSS
VL: QPVLTQPASVSGSPGQSITISCTGTSSDVGGYDYVSWYQHHPGKAPKLMIYEVSNRPSGVSNRFSGSKSGNTASLTISGLQADDEAAYYCSSYTRSNTLLFGGGTKLTVL
B18: ADI-41282 (antibody, V domains shown)
VH: QVQLVQSGGGVVQPGRSLRLSCAASGFMFTIYSMHWVRQAPGKGLEWVAVISNDGVNKYYSDSVKGRFTISRDNSKNTLYLQMNNLRAEDTAVYYCASDIVVLVTATDYWGQGTLVTVSS
VL: ETTLTQSPVTLSLSPGERATLSCRTSQSFSSPLLAWYQQKPGQAPRLLIYGASNRATGIPDRFSGSGSGTDFTLTISRLEPVDFAVYYCQQYGSSPYTFGQGTKLEIK
B19: ADI-41303 (antibody, V domains shown)
VH: QVQLVQSGGGLVRPGGSLRVSCAASGFIFNNYALTWVRQAPGKGLEWVSAISGSGSSTYYADSVKGRFTISRENSNNRLYLQLSGLRAEDTAVYFCARVRGLVWFEGRIDPYPNVFDYWGQGTLVTVSS
VL: DIVLTQSPGTLSLSPGERATLSCRASQSVSNDYLAWYQQKPGQAPRLLIYDASSRAIGIPDRFSGSGSGTDFTLIISRLEPEDFAVYYCHHPGKFGQGTKVEIK
B20: ADI-41299 (antibody, V domains shown)
VH: EVQLVESGGGLVHPGRSLRLSCGASGFTFRSFAMHWVRQAPGKGLEWVAVISYDGSDEYYADSVKGRFTISRDNSRNTLFLQMNRLRPEDTAIYYCARAYCSTSNCPVLDYWGQGTLVTVSS
VL: QSVLIQPASVSGSPGQSITISCTGTSSDVGGYSLVSWYQQHPGKAPKLIIFEGNKRPAGVSDRFSGSKYGDTASLTISGLQAEDEADYYCCSYAGGHSVFGGGTKVTVL
B21: ADI-41280 (antibody, V domains shown)
VH: QVQLVESGPGLVKPSETLALTCTVSGGSLSTYYWSWIRQPPGKGLEWIGYIYYSGTTYYNPSLKSRVTISEDRSKNQFSLKLTSVTAADTAVYYCARHGPKTEFWSAQYYLELWGRGTLVTVSS
VL: EIVLTQSPGTLSLSPGERATLSCRASQSVSSDYLAWYQQKPGQAPSLLIYGVSTRATGIPDRISGSGSGTDFTLTISRLEPEDFAVYYCHQYGTSPWTFGQGTKVEIK

These binders were tested against RSV F on RSV-A2 virus (Respiratory syncytial virus (RSV-A2)) (assay: cell-based or functional assay).

B1 and B2 cannot be ordered by “Neutralization IC50 (RSV subtype A)” value: > 25 µg/mL for the first, > 25 µg/mL for the second.

Going from B3 to B4, the “Neutralization IC50 (RSV subtype A)” value rises from 5.85 µg/mL to > 25 µg/mL.

B5 and B6 cannot be ordered by “Neutralization IC50 (RSV subtype A)” value: > 25 µg/mL for the first, > 25 µg/mL for the second.

B7 and B8 cannot be ordered by “Neutralization IC50 (RSV subtype A)” value: > 25 µg/mL for the first, > 25 µg/mL for the second.

B9 and B10 cannot be ordered by “Neutralization IC50 (RSV subtype A)” value: > 25 µg/mL for the first, > 25 µg/mL for the second.

First: B11
Second: B12
The “Neutralization IC50 (RSV subtype A)” value of the first is higher: > 25 µg/mL for the first, 0.159 µg/mL for the second.

First: B13
Second: B14
The “Neutralization IC50 (RSV subtype A)” value of the first is 13-fold higher: 0.0805 µg/mL for the first, 0.006 µg/mL for the second.

B15 and B16 cannot be ordered by “Neutralization IC50 (RSV subtype A)” value: > 25 µg/mL for the first, > 25 µg/mL for the second.

B17 and B18 cannot be ordered by “Neutralization IC50 (RSV subtype A)” value: > 25 µg/mL for the first, > 25 µg/mL for the second.

B19 and B20 cannot be ordered by “Neutralization IC50 (RSV subtype A)” value: > 25 µg/mL for the first, > 25 µg/mL for the second.

With B21 the “Neutralization IC50 (RSV subtype A)” value was > 25 µg/mL.
